This is an account of results in paper PMC4912631, “Structure of the exportin Xpo4 in complex with RanGTP and the hypusine-containing translation factor eIF5A” (Nature Communications, 2016).

B1: Xpo4 wild type (natural protein)
chain: not shown
B2: Xpo4 E537Q (natural protein)
chain: not shown
B3: Xpo4 D470N (natural protein)
chain: not shown
B4: Xpo4 S631A (natural protein)
chain: not shown
B5: eIF5A truncated (14 N-terminal residues deleted), hypusinated (domain or fragment)
chain: not shown
modifications: hypusine (N-ɛ-(4-amino-2-hydroxybutyl)-lysine) at 50
B6: eIF5A, full-length, hypusinated (natural protein)
chain: not shown
modifications: hypusine (N-ɛ-(4-amino-2-hydroxybutyl)-lysine) at 50
notes: eIF5A, mammalian; lysine 50 in human numbering carries the hypusine; In the nuclear export assay this protein carried an Alexa568 label; also called eIF5A(Hpu); hypusinated eIF5A; source: E. coli NEB Express, purified; hypusinated in vitro by recombinant deoxyhypusine synthase and deoxyhypusine hydroxylase; eluted from anti-ZZ matrix by bdSENP1; cation exchange; not shown: His14, N-terminal, …

Conditions in all cases: both partners purified
In assay [1] the target is RanQ69L (aa 5–180), GTP-bound, untagged ( (mammalian), UniProt P62826 5-180, Q69L). Description: SEC; complexes of Xpo4 variants, RanGTP and a 1.3-molar excess of hypusine-containing eIF5A, retrieved on anti-ZZ beads via tagged RanGTP, eluted by bdSENP1, then Superdex 200 16/60 in 15 mM Tris/HCl pH 7.7, 18 mM NaCl, 2 mM Mg(OAc)2, 2 mM DTT; peak fractions on SDS-PAGE.
Another assay addresses ZZ-bdNEDD8-tagged RanGTP ( (mammalian), UniProt P62826 5-180, Q69L). Description: pull-down; 1 μM Xpo4 wild type or mutants, 0.75 μM ZZ-bdNEDD8-tagged RanGTP, 1.25 μM hypusinated eIF5A, 100 mM NaCl buffer; retrieved via tagged Ran; eluted by bdNEDP1 protease; SDS-PAGE, Coomassie.
Assay [2] concerns the target B1. The experiment in a line: SEC; complexes of Xpo4 variants, RanGTP and a 1.3-molar excess of hypusine-containing eIF5A, retrieved on anti-ZZ beads via tagged RanGTP, eluted by bdSENP1, then Superdex 200 16/60 in 15 mM Tris/HCl pH 7.7, 18 mM NaCl, 2 mM Mg(OAc)2, 2 mM DTT; peak fractions on SDS-PAGE.
The next assay has as its target T1, Xpo4 ΔLoopN&C ( (mammalian), UniProt Q9ESJ0 1-1151, Δ241–260 | Δ931–948).
T1 construct: Xpo4 (exportin 4), mammalian, with loops 241-260 and 931-948 deleted; 1,113 residues printed; Crystallised form; 1,052 of 1,113 residues are modelled in PDB 5DLQ; also called ΔLoopN&C Xpo4 variant; Xpo4 loop deletion mutant; source: E. coli Top10 F', purified (Ni(II) chelate, bdSENP1 elution, Superdex 200, Mono Q); selenomethionine form from BL21; not shown: His14, N-terminal, cleaved; bdSUMO, …
Described as above.

Assay [3] has as its target B1. Description: pull-down; export complexes formed with Xpo4, eIF5A (full-length or truncated) and ZZ-bdNEDD8-tagged RanGTP; immobilised via tagged Ran; eluted by bdNEDP1 protease; SDS-PAGE, Coomassie.

Sequence of Xpo4 wild type (Q9ESJ0 whole entry): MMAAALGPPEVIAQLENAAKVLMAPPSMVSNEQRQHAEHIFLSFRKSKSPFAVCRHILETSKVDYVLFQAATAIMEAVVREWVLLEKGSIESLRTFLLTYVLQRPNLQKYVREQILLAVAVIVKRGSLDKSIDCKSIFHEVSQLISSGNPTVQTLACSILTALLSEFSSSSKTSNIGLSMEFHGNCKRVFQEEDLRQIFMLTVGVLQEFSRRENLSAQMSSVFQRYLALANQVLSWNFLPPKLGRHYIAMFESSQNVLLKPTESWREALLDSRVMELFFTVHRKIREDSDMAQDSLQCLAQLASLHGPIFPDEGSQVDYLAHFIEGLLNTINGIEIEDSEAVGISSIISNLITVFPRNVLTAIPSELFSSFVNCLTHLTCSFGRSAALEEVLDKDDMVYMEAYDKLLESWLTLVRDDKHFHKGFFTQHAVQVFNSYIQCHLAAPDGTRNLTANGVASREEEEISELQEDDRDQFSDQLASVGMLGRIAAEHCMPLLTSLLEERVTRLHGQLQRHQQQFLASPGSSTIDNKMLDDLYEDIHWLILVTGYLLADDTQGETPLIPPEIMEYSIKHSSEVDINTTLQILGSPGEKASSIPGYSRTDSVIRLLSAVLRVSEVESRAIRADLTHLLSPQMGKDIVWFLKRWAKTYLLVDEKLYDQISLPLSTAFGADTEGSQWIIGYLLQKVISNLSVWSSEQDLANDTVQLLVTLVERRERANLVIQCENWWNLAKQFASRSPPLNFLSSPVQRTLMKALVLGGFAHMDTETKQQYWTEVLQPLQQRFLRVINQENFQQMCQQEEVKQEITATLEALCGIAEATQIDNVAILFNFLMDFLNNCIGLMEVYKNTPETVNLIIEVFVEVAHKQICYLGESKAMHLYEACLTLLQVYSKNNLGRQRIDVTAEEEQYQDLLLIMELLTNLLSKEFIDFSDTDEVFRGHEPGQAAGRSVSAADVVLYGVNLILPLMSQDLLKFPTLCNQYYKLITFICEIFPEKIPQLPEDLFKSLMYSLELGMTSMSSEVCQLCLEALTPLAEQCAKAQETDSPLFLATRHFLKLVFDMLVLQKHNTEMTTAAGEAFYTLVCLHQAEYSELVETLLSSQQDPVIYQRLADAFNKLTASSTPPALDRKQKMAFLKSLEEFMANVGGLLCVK
T1 sequence (Q9ESJ0 other isoform, or with tags, fused parts or gaps Δ241–260 | Δ931–948 | Δ241–260 | Δ931–948 | mutant): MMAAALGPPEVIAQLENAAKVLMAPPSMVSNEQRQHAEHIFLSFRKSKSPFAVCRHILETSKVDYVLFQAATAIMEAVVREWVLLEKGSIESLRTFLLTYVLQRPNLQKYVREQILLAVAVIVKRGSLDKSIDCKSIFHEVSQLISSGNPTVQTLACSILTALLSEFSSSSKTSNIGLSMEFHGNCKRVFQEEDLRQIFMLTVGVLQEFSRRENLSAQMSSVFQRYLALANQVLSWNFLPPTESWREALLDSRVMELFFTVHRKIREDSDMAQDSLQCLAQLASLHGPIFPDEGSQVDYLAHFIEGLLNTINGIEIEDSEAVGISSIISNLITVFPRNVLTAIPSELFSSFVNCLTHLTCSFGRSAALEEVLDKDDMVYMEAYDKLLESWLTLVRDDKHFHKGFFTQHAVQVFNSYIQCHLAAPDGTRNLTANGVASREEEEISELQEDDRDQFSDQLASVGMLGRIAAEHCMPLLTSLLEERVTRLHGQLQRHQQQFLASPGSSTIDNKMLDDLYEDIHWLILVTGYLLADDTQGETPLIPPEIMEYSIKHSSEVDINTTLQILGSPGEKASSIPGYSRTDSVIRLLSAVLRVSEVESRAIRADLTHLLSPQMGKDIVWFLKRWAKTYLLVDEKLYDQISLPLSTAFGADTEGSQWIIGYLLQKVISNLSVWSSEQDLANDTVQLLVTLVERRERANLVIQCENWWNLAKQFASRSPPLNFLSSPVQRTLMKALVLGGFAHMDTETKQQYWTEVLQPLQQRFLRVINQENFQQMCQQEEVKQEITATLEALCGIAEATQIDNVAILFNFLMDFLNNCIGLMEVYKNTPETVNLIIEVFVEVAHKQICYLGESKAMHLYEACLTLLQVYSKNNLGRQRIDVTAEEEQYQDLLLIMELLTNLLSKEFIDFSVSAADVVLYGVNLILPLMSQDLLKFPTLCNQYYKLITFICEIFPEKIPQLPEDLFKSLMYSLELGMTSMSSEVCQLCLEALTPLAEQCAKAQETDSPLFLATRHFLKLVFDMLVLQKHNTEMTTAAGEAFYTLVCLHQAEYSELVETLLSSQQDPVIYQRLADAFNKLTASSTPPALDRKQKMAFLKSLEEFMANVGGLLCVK

For the molecule B1, the binding result (in assay [1]; with ZZ-bdNEDD8-tagged RanGTP) was “binds” in each case.
With B2, the binding result in the assay with ZZ-bdNEDD8-tagged RanGTP was “binds”.
As for B3, the binding result in the assay with ZZ-bdNEDD8-tagged RanGTP is “binds”.
Still for that read-out and setting: for B4 the value was “binds”.
As for B5, the binding result with Xpo4 wild type [2] and in the assay with Xpo4 ΔLoopN&C was “binds” each time.
Regarding B6, in the assay with Xpo4 wild type [3], the binding result is given as “binds”.
